From paper PMC10397247

Experiments:
Test in all cases: two-hybrid library CCmax;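 note: natural log of median RNA to DNA barcode read ratio; higher means stronger binding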
4H2389-AA = molecular target: T1, 4H2389-AA; details: mean of both orientations
T1 chain: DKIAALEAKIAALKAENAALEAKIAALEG

4H3865-AA = molecular target: T2, 4H3865-AA; details: mean of both orientations
T2 chain: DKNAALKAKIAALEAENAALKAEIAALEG

4H2109-AA = molecular target: T3, 4H2109-AA; details: mean of both orientations
T3 chain: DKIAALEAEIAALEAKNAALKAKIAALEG

4H930-AA = molecular target: T4, 4H930-AA
T4 chain: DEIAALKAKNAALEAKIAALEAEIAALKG

4H2438-AA = molecular target: T5, 4H2438-AA; details: mean of both orientations
T5 chain: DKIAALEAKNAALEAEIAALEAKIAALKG

4H3697-AA = molecular target: T6, 4H3697-AA; details: mean of both orientations
T6 chain: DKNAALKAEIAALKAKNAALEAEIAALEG

4H2330-AA = molecular target: T7, 4H2330-AA; details: mean of both orientations
T7 chain: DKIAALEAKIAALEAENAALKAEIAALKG

4H2649-AA = molecular target: T8, 4H2649-AA; details: mean of both orientations
T8 chain: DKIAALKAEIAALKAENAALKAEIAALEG

4H570-AA = molecular target: T9, 4H570-AA; details: mean of both orientations
T9 chain: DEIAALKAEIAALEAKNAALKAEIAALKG

4H2725-AA = molecular target: T10, 4H2725-AA; details: mean of both orientations
T10 chain: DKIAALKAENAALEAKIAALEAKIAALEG

4H3381-AA = molecular target: T11, 4H3381-AA
T11 chain: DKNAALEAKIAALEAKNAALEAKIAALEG

4H3590-AA = molecular target: T12, 4H3590-AA; details: mean of both orientations
T12 chain: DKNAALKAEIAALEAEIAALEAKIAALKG

4H536-AA = molecular target: T13, 4H536-AA; details: mean of both orientations
T13 chain: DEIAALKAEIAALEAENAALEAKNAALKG

4H1877-AA = molecular target: T14, 4H1877-AA; details: mean of both orientations
T14 chain: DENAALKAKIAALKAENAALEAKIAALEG

4H3165-AA = molecular target: T15, 4H3165-AA; details: mean of both orientations
T15 chain: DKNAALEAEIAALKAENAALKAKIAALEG

4H174-AA = molecular target: T16, 4H174-AA; details: mean of both orientations
T16 chain: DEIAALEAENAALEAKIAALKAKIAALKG

4H94-AA = molecular target: T17, 4H94-AA; details: mean of both orientations
T17 chain: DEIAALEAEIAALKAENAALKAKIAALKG

4H891-AA = molecular target: T18, 4H891-AA; details: mean of both orientations
T18 chain: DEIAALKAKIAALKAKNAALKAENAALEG

4H485-AA = molecular target: T19, 4H485-AA; details: mean of both orientations
T19 chain: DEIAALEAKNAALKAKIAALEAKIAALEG

4H1626-AA = molecular target: T20, 4H1626-AA; details: mean of both orientations
T20 chain: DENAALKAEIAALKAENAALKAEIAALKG

4H171-AA = molecular target: T21, 4H171-AA; details: mean of both orientations
T21 chain: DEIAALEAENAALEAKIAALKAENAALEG

4H2698-AA = molecular target: T22, 4H2698-AA; details: mean of both orientations
T22 chain: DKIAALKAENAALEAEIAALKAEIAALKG

4H3395-AA = molecular target: T23, 4H3395-AA; details: mean of both orientations
T23 chain: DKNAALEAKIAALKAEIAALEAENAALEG

4H1597-AA = molecular target: T24, 4H1597-AA
T24 chain: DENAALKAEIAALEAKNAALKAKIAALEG

4H3016-AA = molecular target: T25, 4H3016-AA; details: mean of both orientations
T25 chain: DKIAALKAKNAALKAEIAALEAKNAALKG

4H2473-AA = molecular target: T26, 4H2473-AA; details: mean of both orientations
T26 chain: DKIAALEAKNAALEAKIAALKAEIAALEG

4H458-AA = molecular target: T27, 4H458-AA; details: mean of both orientations
T27 chain: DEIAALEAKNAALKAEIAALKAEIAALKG

4H2253-AA = molecular target: T28, 4H2253-AA; details: mean of both orientations
T28 chain: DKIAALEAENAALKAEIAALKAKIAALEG

4H2274-AA = molecular target: T29, 4H2274-AA; details: mean of both orientations
T29 chain: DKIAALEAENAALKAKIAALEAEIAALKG

4H2162-AA = molecular target: T30, 4H2162-AA; details: mean of both orientations
T30 chain: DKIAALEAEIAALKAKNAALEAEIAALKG

4H3009-AA = molecular target: T31, 4H3009-AA; details: mean of both orientations
T31 chain: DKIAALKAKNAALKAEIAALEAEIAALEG

4H710-AA = molecular target: T32, 4H710-AA; details: mean of both orientations
T32 chain: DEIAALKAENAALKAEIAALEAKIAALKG

4H3410-AA = molecular target: T33, 4H3410-AA; details: mean of both orientations
T33 chain: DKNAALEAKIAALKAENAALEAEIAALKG

4H629-AA = molecular target: T34, 4H629-AA; details: mean of both orientations
T34 chain: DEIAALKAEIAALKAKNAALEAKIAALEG

4H850-AA = molecular target: T35, 4H850-AA; details: mean of both orientations
T35 chain: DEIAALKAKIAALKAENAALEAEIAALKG

4H3130-AA = molecular target: T36, 4H3130-AA; details: mean of both orientations
T36 chain: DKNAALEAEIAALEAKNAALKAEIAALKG

4H1842-AA = molecular target: T37, 4H1842-AA; details: mean of both orientations
T37 chain: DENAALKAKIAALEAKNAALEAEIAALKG

4H310-AA = molecular target: T38, 4H310-AA; details: mean of both orientations
T38 chain: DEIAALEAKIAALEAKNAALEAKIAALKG

4H2865-AA = molecular target: T39, 4H2865-AA; details: mean of both orientations
T39 chain: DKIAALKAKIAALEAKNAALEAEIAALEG

4H1864-AA = molecular target: T40, 4H1864-AA; details: mean of both orientations
T40 chain: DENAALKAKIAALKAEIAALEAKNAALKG

4H3753-AA = molecular target: T41, 4H3753-AA; details: mean of both orientations
T41 chain: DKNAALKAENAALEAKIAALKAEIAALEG

4H745-AA = molecular target: T42, 4H745-AA; details: mean of both orientations
T42 chain: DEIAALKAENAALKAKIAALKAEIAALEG

4H3120-AA = molecular target: T43, 4H3120-AA; details: mean of both orientations
T43 chain: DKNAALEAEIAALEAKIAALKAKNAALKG

4H797-AA = molecular target: T44, 4H797-AA; details: mean of both orientations
T44 chain: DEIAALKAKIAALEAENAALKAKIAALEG

4H909-AA = molecular target: T45, 4H909-AA; details: mean of both orientations
T45 chain: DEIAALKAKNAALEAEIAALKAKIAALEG

interaction score (4H2389-AA): 2.15
interaction score (4H3865-AA): 0.833
interaction score (4H2109-AA): -1.06
interaction score (4H930-AA): -1.69
interaction score (4H2438-AA): -0.641
interaction score (4H3697-AA): 0.353
interaction score (4H2330-AA): -1.59
interaction score (4H2649-AA): -0.826
interaction score (4H570-AA): -1.39
interaction score (4H2725-AA): 0.827
interaction score (4H3381-AA): -0.659
interaction score (4H3590-AA): 0.533
interaction score (4H536-AA): -0.234
interaction score (4H1877-AA): 2.43
interaction score (4H3165-AA): -0.486
interaction score (4H174-AA): -0.236
interaction score (4H94-AA): -0.751
interaction score (4H891-AA): -1.56
interaction score (4H485-AA): -1.53
interaction score (4H1626-AA): -1.36
interaction score (4H171-AA): -0.742
interaction score (4H2698-AA): -0.556
interaction score (4H3395-AA): -1.14
interaction score (4H1597-AA): 0.478
interaction score (4H3016-AA): -1.4
interaction score (4H2473-AA): -1.3
interaction score (4H458-AA): -1.71
interaction score (4H2253-AA): -1.29
interaction score (4H2274-AA): -1.74
interaction score (4H2162-AA): -1.31
interaction score (4H3009-AA): -1.02
interaction score (4H710-AA): -1.99
interaction score (4H3410-AA): 2
interaction score (4H629-AA): 0.0113
interaction score (4H850-AA): 1.96
interaction score (4H3130-AA): -1.55
interaction score (4H1842-AA): -0.303
interaction score (4H310-AA): -0.161
interaction score (4H2865-AA): 0.229
interaction score (4H1864-AA): 0.43
interaction score (4H3753-AA): -0.89
interaction score (4H745-AA): -1.15
interaction score (4H3120-AA): -1.49
interaction score (4H797-AA): 0.0984
interaction score (4H909-AA): -1.1
Binder: DENAALKAEIAALEAKNAALKAKIAALEG [4H1597-AA]
